Assay results taken from patent US6713265 (SYNAPTIC PHARMACEUTICAL, dated 2004).
Like-named read-outs stand apart in the source and are kept apart here. One block for each binder: values may come before it. Ends that are not written are not given here.

What was measured:
human Y2 receptor [1] = target: T1, human Y2 receptor (human, UniProt P49146 1-381); assay: 125I-PYY displacement, COS-7 membranes
T1 construct: whole, on cells
T1 sequence (looked up): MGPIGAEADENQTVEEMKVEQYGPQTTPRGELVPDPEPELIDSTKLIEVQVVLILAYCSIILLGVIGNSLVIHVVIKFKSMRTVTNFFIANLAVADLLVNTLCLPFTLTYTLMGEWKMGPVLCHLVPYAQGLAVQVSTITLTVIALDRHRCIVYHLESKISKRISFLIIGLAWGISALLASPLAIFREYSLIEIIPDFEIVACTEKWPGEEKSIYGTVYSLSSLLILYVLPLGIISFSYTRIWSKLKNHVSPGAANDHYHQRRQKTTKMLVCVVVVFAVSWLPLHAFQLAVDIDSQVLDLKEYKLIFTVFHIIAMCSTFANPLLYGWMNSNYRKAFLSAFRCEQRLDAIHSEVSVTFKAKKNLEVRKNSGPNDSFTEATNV

human Y2 receptor [2] = target: T1, human Y2 receptor; assay: 125I-PYY displacement, COS-7 membranes; remark: listed apart in the source
rat Y2 receptor = target: T2, rat Y2 receptor (rat, UniProt Q9ERC0 1-381); assay: 125I-PYY displacement, COS-7 membranes
T2 construct: whole, on cells; also called rY2
T2 sequence: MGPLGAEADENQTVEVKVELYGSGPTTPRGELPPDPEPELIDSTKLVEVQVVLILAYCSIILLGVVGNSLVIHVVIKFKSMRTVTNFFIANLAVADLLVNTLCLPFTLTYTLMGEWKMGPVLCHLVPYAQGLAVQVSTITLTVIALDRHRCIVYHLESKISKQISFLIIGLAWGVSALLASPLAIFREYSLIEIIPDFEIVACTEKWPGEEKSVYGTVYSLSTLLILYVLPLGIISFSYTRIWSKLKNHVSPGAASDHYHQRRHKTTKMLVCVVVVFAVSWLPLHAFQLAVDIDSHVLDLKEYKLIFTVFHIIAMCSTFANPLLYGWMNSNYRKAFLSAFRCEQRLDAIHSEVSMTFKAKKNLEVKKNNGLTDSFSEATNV

rat Y1 receptor = target: T3, rat Y1 receptor (rat, UniProt P21555 1-382); assay: 125I-PYY displacement, COS-7 membranes
T3 construct: whole, on cells; also called rY1
T3 sequence (looked up): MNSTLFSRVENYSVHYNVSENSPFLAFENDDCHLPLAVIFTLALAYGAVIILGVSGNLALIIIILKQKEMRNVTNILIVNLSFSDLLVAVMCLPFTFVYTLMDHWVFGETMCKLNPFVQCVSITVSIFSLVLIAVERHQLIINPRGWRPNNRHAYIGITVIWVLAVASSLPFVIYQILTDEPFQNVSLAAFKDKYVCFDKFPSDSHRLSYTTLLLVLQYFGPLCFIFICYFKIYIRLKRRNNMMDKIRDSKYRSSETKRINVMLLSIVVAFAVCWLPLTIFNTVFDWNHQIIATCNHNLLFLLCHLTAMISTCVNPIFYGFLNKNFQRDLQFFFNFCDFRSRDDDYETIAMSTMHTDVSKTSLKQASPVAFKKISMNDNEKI

canine Y5 receptor [3] = target: T4, canine Y5 receptor (canine, UniProt O62729 1-446); assay: 125I-PYY displacement, COS-7 membranes
T4 construct: Transiently expressed in COS-7 cells; also called canine (beagle) Y5; BO11
T4 sequence: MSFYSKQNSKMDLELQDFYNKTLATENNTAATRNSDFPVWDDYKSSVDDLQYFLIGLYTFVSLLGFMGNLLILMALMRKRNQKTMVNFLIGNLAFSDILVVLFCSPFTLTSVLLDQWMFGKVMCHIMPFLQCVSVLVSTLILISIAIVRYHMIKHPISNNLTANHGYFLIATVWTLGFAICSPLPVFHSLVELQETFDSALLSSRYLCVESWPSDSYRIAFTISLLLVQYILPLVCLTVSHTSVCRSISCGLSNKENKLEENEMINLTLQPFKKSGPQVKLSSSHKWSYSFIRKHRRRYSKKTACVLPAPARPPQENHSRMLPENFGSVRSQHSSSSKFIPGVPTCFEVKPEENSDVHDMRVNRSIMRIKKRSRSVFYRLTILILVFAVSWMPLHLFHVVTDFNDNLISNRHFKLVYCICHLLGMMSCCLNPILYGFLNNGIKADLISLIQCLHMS

human Y5 receptor [4] = target: T5, human Y5 receptor (human, UniProt Q15761 1-445); assay: 125I-PYY displacement, COS-7 membranes
T5 construct: also called CG-19; hY5
T5 sequence: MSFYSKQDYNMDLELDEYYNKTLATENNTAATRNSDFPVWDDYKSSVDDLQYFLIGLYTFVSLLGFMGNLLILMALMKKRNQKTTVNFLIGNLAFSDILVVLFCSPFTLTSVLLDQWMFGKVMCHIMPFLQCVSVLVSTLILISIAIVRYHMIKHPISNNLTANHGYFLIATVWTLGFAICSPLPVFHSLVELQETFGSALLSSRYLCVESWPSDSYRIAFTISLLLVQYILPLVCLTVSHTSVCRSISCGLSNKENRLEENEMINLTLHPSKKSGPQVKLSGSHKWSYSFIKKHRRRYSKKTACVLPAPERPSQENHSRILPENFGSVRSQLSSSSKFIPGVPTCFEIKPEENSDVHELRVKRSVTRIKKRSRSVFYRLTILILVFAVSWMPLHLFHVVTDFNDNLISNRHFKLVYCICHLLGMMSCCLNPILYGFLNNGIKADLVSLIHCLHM

[5] = target: T6, rat hypothalamic Y5 receptor (rat, UniProt Q63634 1-445); assay: 125I-PYY displacement, COS-7 membranes
T6 construct: Expressed transiently in COS-7 or stably in 293 cells; also called rat Y5; CG-18
T6 sequence: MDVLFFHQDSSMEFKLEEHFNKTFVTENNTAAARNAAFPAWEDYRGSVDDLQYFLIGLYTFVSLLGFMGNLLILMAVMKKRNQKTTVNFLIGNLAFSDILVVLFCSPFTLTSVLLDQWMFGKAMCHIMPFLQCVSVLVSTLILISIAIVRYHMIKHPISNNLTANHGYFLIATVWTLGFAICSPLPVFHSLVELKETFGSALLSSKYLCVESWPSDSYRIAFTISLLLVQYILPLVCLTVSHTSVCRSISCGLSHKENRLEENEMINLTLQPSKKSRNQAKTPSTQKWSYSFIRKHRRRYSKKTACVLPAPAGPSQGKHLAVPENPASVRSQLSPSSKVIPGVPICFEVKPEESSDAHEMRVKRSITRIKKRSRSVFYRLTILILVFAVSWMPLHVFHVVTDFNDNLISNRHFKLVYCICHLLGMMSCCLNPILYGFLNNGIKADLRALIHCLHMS

rat Y4 receptor [6] = target: T7, rat Y4 receptor (rat, UniProt Q63447 1-375); assay: 125I-PYY displacement, COS-7 membranes
T7 construct: whole, on cells; also called rY4
T7 sequence (Q63447 whole entry): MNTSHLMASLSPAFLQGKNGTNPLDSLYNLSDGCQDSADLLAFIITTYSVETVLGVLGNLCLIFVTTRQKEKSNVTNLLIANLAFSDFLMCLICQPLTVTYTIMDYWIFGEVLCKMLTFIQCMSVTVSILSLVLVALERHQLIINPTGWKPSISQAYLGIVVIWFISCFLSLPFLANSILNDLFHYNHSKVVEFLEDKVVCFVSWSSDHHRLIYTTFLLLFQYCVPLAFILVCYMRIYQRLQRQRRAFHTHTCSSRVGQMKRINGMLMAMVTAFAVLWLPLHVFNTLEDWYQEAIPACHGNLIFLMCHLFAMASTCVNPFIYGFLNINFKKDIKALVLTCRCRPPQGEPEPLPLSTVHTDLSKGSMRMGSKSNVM

[7] = target: T6, rat hypothalamic Y5 receptor; assay: 125I-PYY displacement, COS-7 membranes; remark: listed apart in the source
human Y5 receptor [8] = target: T5, human Y5 receptor; assay: 125I-PYY3-36 displacement, LM(tk-) membranes
[9] = target: T6, rat hypothalamic Y5 receptor; assay: cell-based or functional assay
human Y5 receptor [10] = target: T5, human Y5 receptor; assay: cell-based or functional assay
human Y5 receptor [11] = target: T5, human Y5 receptor; assay: 125I-PYY displacement, COS-7 membranes; remark: listed apart in the source
human Y4 receptor [12] = target: T8, human Y4 receptor (human, UniProt P50391 1-375); assay: 125I-PYY displacement, COS-7 membranes
T8 construct: whole, on cells
T8 sequence (P50391 whole entry): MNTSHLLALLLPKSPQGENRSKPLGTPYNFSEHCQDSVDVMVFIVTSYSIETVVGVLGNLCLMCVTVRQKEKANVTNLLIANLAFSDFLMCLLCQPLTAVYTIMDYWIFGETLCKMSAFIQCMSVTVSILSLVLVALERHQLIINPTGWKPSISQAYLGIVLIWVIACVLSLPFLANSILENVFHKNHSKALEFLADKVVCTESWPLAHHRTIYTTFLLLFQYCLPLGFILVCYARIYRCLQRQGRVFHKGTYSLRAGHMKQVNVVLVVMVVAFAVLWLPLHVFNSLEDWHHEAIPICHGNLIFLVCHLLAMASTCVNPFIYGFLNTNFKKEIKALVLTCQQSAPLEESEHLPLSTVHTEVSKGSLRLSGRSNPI

human Y1 receptor [13] = target: T9, human Y1 receptor (human, UniProt P25929 1-384); assay: 125I-PYY displacement, COS-7 membranes
T9 construct: whole, on cells; stably transfected 293 cells for function
T9 sequence (looked up): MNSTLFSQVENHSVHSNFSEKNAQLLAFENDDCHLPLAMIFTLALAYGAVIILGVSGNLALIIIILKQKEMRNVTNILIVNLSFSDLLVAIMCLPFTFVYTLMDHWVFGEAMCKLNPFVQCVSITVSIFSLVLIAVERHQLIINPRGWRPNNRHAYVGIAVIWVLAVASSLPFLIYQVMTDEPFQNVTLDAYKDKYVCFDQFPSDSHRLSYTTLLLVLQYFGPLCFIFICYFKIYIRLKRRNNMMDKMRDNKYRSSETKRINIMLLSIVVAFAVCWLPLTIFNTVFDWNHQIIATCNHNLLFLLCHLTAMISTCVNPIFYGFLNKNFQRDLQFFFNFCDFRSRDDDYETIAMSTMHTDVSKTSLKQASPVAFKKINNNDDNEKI

[14] = target: T6, rat hypothalamic Y5 receptor; assay: 125I-PYY displacement, COS-7 membranes; remark: listed apart in the source
human Y4 receptor [15] = target: T8, human Y4 receptor; assay: 125I-PYY displacement, COS-7 membranes; remark: listed apart in the source
human Y1 receptor [16] = target: T9, human Y1 receptor; assay: 125I-PYY displacement, COS-7 membranes; remark: listed apart in the source
rat Y4 receptor [17] = target: T7, rat Y4 receptor; assay: 125I-PYY displacement, COS-7 membranes; remark: listed apart in the source
canine Y5 receptor [18] = target: T4, canine Y5 receptor; assay: 125I-PYY displacement, COS-7 membranes; remark: listed apart in the source
human Y5 receptor [19] = target: T5, human Y5 receptor; assay: 125I-PYY displacement, LM(tk-) membranes

Binder: FLRF-NH2 [FLRF-amide]
Ki (rat Y1 receptor): 45000 nM
Ki [7]: 5500 nM
EC50, inhibition of forskolin-stimulated cAMP accumulation, 293 cells [9]: 13000 nM

B4: human PP2-36 (peptide, UniProt P01298 31-65, looked up)
peptide: PLEPVYPGDNATPEQMAQYAADLRRYINMLTRPRY
notes: range 2-36; Range counted on the mature peptide
Ki (human Y5 receptor [4]): 2.1 nM
EC50, inhibition of forskolin-stimulated cAMP accumulation, LM(tk-) cells (human Y5 receptor [10]): 2 nM
Ki (human Y5 receptor [11]): 2.1 nM

B7: human PP13-36 (peptide, UniProt P01298 42-65, looked up)
peptide: TPEQMAQYAADLRRYINMLTRPRY
notes: range 13-36; Range counted on the mature peptide
Ki (human Y5 receptor [4]): 720 nM
Ki [5]: 290 nM
Ki [7]: 84 nM
Ki (human Y4 receptor [12]): 39 nM
Ki (human Y5 receptor [11]): 720 nM
Ki (human Y4 receptor [15]): 39 nM

B9: human PP (peptide, UniProt P01298 30-65, looked up)
peptide: APLEPVYPGDNATPEQMAQYAADLRRYINMLTRPRY
notes: mature; also called PP, human; human pancreatic polypeptide
Ki [5]: 5 nM
Ki (rat Y4 receptor [6]): 0.04 nM
Ki [7]: 5 nM
Ki [14]: 5 nM
Ki (canine Y5 receptor [3]): 6.3 nM
Ki (canine Y5 receptor [18]): < 10 nM
Ki (rat Y4 receptor [17]): < 0.2 nM

Binder: APLEPVYPGDNATPEQMAQYAADLRRYINMITRQRY (peptide, UniProt P01298 30-65, looked up, ends and bridges not checked, mature) [human [Ile^31, Gln^34]PP]
Ki (human Y5 receptor [4]): 2 nM
EC50, inhibition of forskolin-stimulated cAMP accumulation, LM(tk-) cells (human Y5 receptor [10]): 5.6 nM

Binder: APLEPEYPGDNATPEQMAQYAAELRRYINMLTRPRY (peptide, UniProt P01302 30-65, looked up, mature; also called PP, bovine) [bovine PP]
Ki (human Y5 receptor [4]): 1.6 nM
Ki [5]: 8.4 nM
Ki (rat Y1 receptor): 120 nM
Ki [7]: 8.4 nM
Ki (human Y5 receptor [19]): 7.9 nM
Ki (canine Y5 receptor [3]): 10 nM
Ki (human Y5 receptor [8]): 5 nM
EC50, inhibition of forskolin-stimulated cAMP accumulation, 293 cells [9]: 5.7 nM

Binder: APSEPHHPGDQATQDQLAQYYSDLYQYITFVTRPRF (ends and bridges not checked) [frog PP (rana temporaria)]
Ki (rat Y1 receptor): 720 nM

The remaining lines, values ahead:

Ki (human Y2 receptor [1]): 380 nM
Ki (human Y2 receptor [2]): 380 nM
B1: porcine NPY26-36 (peptide, UniProt P01304 35-45, looked up)
peptide: HYINLITRQRY
notes: range 26-36; Range counted on the mature peptide

Ki (rat Y2 receptor): 31 nM
Ki (rat Y1 receptor): 190 nM
Ki (canine Y5 receptor [3]): 120 nM
B2: porcine NPY13-36 (peptide, UniProt P01304 22-45, looked up)
peptide: PAEDLARYYSALRHYINLITRQRY
notes: range 13-36; Range counted on the mature peptide; also called NPY13-36, porcine

Ki (human Y5 receptor [4]): 300 nM
Ki [5]: 260 nM
Ki (rat Y2 receptor): 35 nM
Ki (rat Y4 receptor [6]): 200 nM
Ki (rat Y1 receptor): 140 nM
Ki [7]: 260 nM
Ki (human Y5 receptor [8]): 180 nM
B3: porcine NPY16-36 (peptide, UniProt P01304 25-45, looked up)
peptide: DLARYYSALRHYINLITRQRY
notes: range 16-36; Range counted on the mature peptide

Ki (rat Y1 receptor): 130 nM
B5: human PYY13-36 (peptide, UniProt P10082 41-64, looked up)
peptide: SPEELNRYYASLRHYLNLVTRQRY
notes: as for B7

Ki (rat Y2 receptor): 54 nM
B6: porcine NPY22-36 (peptide, UniProt P01304 31-45, looked up)
peptide: SALRHYINLITRQRY
notes: range 22-36; Range counted on the mature peptide

Ki (human Y5 receptor [4]): 630 nM
Ki [5]: 230 nM
Ki [7]: 230 nM
Ki (human Y4 receptor [12]): 0.16 nM
Ki (human Y1 receptor [13]): 450 nM
Ki [14]: 180 nM
Ki (canine Y5 receptor [3]): 160 nM
Ki (human Y5 receptor [8]): 130 nM
EC50, inhibition of forskolin-stimulated cAMP accumulation, 293 cells [9]: 130 nM
Ki (human Y5 receptor [11]): 630 nM
Ki (human Y4 receptor [15]): 0.16 nM
Ki (human Y1 receptor [16]): 450 nM
Ki (rat Y4 receptor [17]): < 0.2 nM
Binder: APLEPMYPGDYATHEQRAQYETQLRRYINTLTRPRY (peptide, UniProt P06303 30-65, looked up, mature; also called PP, rat) [rat PP]

Ki (rat Y4 receptor [6]): 26 nM
Ki (human Y5 receptor [8]): 41000 nM
B8: human PP31-36 (peptide, UniProt P01298 60-65, looked up)
peptide: LTRPRY
notes: range 60-65; Range counted on the mature peptide
